# Changes are numbered by the printed parent chain.
# T1: human BCMA-Fc (human, UniProt Q02223 1-54)
# T1 construct: Bought from R&D Systems; also called huBCMA-Fc; not shown: Fc part not described
# T1 sequence: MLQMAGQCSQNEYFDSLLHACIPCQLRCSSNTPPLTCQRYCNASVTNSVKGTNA
# T2: human BCMA on cells (human, UniProt Q02223 1-184)
# T2 construct: also called hBCMA; BCMA on NCI-H929, ARP-1, OPM-2, U266B1, MM.1S, RPMI-8226 cells
# T2 sequence: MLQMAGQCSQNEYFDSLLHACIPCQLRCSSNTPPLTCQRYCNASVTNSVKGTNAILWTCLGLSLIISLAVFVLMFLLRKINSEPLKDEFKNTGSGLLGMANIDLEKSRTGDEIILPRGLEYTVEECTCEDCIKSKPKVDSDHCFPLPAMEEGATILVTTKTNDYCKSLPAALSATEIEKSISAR
# B1: 2290-C07 (antibody, V domains shown)
# VH: EVQLVESGGGLVQPGGSLRLSCAASGFNITYDWIHWVRQAPGKGLEWVGVITPFDGYTYYADSVKGHFTISADTSKNTAYLQMNSLRAEDTAVYYCARDMGVGYWVGFSDYWGQGTLVTVSS
# VL: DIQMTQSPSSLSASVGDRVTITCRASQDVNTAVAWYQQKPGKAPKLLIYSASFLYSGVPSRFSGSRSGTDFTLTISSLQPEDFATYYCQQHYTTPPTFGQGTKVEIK
# notes: also called Antibody 19
# B2: 2290-G01 (antibody, V domains shown)
# VH: B1 VH with T30S, Y31P, D32Y, F54P, D55S, Y57F, H67R, M83V, M100L
# VL: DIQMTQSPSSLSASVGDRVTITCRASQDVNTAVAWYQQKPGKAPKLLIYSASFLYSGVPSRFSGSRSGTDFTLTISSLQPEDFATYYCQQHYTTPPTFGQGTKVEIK
# notes: also called Antibody 17
# B3: 2213-A06 (antibody, V domains shown)
# VH: EVQLVESGGGLVQPGGSLRLSCAASGFNISSYAIHWVRQAPGKGLEWVGVISPYGGYTEYADSVKGRFTISADTSKNTAYLQMNSLRAEDTAVYYCARDFYDRYSTYVLDYWGQGTLVTVSS
# VL: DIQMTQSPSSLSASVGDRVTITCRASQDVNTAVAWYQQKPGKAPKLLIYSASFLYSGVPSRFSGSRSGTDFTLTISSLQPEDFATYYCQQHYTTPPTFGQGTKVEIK
# notes: also called Antibody 23
# B4: 2137-C07 (antibody, V domains shown)
# VH: EVQLVESGGGLVQPGGSLRLSCAASGFNISGSGIHWVRQAPGKGLEWVGFINPAGGYTDYADSVKGRFTISADTSKNTAYLQMNSLRAEDTAVYYCARDYVYQYWTYVLDYWGQGTLVTVSS
# VL: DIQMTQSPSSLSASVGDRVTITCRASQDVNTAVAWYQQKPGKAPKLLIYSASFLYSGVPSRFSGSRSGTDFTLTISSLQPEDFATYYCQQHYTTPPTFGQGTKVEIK
# notes: IgG1 with His/FLAG tag, cell-free expressed, trastuzumab LC; also called Antibody 1
# B5: 2265-F02 (antibody, V domains shown)
# VH: B4 VH with G31A, S32P, V101I, Y102R
# VL: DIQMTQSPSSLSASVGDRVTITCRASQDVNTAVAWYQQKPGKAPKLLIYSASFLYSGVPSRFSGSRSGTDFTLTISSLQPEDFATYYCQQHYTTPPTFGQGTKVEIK
# notes: also called Antibody 4; Antibody 2265-F02
# B6: 2265-F06 (antibody, V domains shown)
# VH: B4 VH with G31Y, S32P, V101I, Y102L
# VL: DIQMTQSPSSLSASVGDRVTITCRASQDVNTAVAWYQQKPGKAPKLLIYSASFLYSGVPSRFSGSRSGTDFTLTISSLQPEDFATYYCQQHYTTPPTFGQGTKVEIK
# notes: also called Antibody 2
# B7: 2265-F03 (antibody, V domains shown)
# VH: B4 VH with S30R, S32P, N52S, G55A, Y100F, Y102Q, Q103S
# VL: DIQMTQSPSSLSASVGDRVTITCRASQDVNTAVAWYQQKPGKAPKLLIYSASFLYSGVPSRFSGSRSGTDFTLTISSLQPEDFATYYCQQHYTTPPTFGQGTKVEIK
# notes: also called Antibody 7
# B8: 2265-D11 (antibody, V domains shown)
# VH: B4 VH with S32P, G55A, V101I
# VL: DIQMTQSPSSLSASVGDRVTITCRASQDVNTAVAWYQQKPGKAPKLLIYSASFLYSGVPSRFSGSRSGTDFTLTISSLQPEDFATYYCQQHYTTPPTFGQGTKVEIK
# notes: also called Antibody 9
# B9: 2265-D05 (antibody, V domains shown)
# VH: B4 VH with S32P, G55A, T69A, Y100F, Q103A
# VL: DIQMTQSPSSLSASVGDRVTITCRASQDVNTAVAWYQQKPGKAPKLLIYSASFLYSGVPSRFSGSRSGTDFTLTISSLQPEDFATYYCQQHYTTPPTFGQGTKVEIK
# notes: also called Antibody 10
# B10: 2265-E02 (antibody, V domains shown)
# VH: B4 VH with S30Y, G31V, M83T
# VL: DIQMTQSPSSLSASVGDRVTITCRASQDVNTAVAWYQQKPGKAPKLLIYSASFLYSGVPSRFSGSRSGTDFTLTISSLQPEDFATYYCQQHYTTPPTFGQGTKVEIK
# notes: also called Antibody 8
# B11: 2265-A06 (antibody, V domains shown)
# VH: B4 VH with S30Y, G31R, Y102P
# VL: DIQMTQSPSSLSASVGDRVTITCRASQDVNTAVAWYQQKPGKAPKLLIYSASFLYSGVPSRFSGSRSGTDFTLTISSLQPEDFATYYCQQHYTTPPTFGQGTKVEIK
# notes: also called Antibody 13
# B12: 2265-B06 (antibody, V domains shown)
# VH: B4 VH with S30R, G31V, Y102Q, Q103A
# VL: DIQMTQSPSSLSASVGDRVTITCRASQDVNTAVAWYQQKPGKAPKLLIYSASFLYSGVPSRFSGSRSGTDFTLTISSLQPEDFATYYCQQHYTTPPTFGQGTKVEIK
# notes: also called Antibody 5
# B13: 2265-A09 (antibody, V domains shown)
# VH: B4 VH with S30I, S32P, Q103N
# VL: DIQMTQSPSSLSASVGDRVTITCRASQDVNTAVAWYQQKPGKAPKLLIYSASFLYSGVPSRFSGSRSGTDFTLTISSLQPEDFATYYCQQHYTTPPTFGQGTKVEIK
# notes: also called Antibody 6
# B14: 2265-C03 (antibody, V domains shown)
# VH: B4 VH with S25P, G31V, S32P, Y102P
# VL: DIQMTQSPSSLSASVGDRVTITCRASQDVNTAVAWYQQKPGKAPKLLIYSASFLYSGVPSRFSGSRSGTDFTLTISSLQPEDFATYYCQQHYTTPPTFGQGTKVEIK
# notes: also called Antibody 11
# B15: 2265-F05 (antibody, V domains shown)
# VH: B4 VH with S30I, G31A, S32P, Y102N, Q103A
# VL: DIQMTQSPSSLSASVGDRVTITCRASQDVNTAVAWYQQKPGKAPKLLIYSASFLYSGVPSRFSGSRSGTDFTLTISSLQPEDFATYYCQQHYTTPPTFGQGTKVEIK
# notes: also called Antibody 3
# B16: 2265-C02 (antibody, V domains shown)
# VH: B4 VH with S30G, G31V, D62G, V101I, Q103S
# VL: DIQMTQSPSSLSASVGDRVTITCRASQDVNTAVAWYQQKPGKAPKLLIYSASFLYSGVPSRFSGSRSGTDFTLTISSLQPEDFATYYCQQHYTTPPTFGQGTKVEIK
# notes: also called Antibody 12
# B17: 9A8 (antibody, V domains shown)
# VH: AVTLDESGGGLQTPGGTLSLVCKASGFTFSSFNMFWVRQAPGKGLEWVAYIRNDGNSASYGPAVKGRATISRDNGQSTVRLQLNNLRAEDTATYYCAKTTCIGSGGCIDTWGHGTEVIVSS
# VL: ALTQPSSVSANPGETVKITCSGGSSDYGWFQQKSPGSAPVTVIYSNNQRPSGIPSRFSGSKSGSTGTLTITGVQAEDEAIYYCANVDYTDDVFGAGTTLTVL
# notes: Chicken HybriFree-derived antibody; also called Antibody 30
# B18: 10G5 (antibody, V domains shown)
# VH: B17 VH with T17V, R52S, N56S, A58T, Y95F
# VL: B17 VL with S24N, S25Y, F30Y, V42L, S45Y, Q48K, G52D, Y88S
# notes: Chicken HybriFree-derived antibody; also called Antibody 31
# Biological target: T3, cyno BCMA-Fc (cynomolgus monkey, UniProt Q02223 1-54 (human entry))
# T3 construct: Custom protein production; also called cynomolgus BCMA-Fc; not shown: Fc part not described
# Assay: ELISA, coated cynoBCMA-Fc
Binder,Bmax,EC50
B1,3.81e+06,0.2 nM
B2,4.6e+06,0.3 nM
B3,2.23e+06,39 nM

# Biological target: T1, human BCMA-Fc
# Assay: SPR Biacore, antibody captured, 25 C
# Protocol: (§1) Anti-Fab or anti-Fc polyclonal antibodies were immobilized onto a CM5 chip (GE Life Sciences) using amine coupling chemistry (from Amine Coupling Kit, GE Life Sciences). The immobilization steps were carried out at a flow rate of 25 μL/min in 1×HBS-EP+ buffer (GE Life Sciences; 10× Stock diluted before use). The sensor surfaces were activated for 7 min with a mixture of NHS (0.05 M) and EDC (0.2 M). The anti-Fab or anti-Fc antibodies were injected over all 4 flow cells at a concentration of 25 μg/ml in 10 mM sodium acetate, pH 4.5, for 7 min. Ethanolamine (1 M, pH 8.5) was injected for 7 min to block any remaining activated groups.
# (§2) Off-rate and kinetic binding experiments were performed at 25° C. using 1×HBS-EP+ buffer. […] After capturing ligand (antibody) on the anti-Fab or anti-Fc surface, the analyte (human BCMA-Fc, cyno BCMA-Fc, or human BCMA from R&D Systems, custom protein production, or Sigma Aldrich, respectively) was bound for 180 seconds, followed by a 600 second dissociation phase at a flow rate of 50 μL/min. Between each ligand capture and analyte binding cycle, regeneration was carried out using 2 injections of 10 mM glycine pH 2.0 for 30 seconds at 30 μL/min, followed by a 30 second buffer wash step.
# (§3) The data was fit with the Biacore T200 Evaluation software, using a 1-1 Langmuir binding model. KD (affinity, nM) was determined as a ratio of the kinetic rate constants calculated from the fits of the association and dissociation phases.
Binder,Kd,koff,kon
B1,0.612 nM,0.000221 s⁻¹,361000 M⁻¹ s⁻¹
B2,0.445 nM,0.000318 s⁻¹,714000 M⁻¹ s⁻¹
B4,1.63 nM,0.000745 s⁻¹,457000 M⁻¹ s⁻¹
B5,0.499 nM,0.000293 s⁻¹,587000 M⁻¹ s⁻¹
B6,0.276 nM,0.000193 s⁻¹,699000 M⁻¹ s⁻¹
B7,0.633 nM,0.000474 s⁻¹,749000 M⁻¹ s⁻¹
B8,0.701 nM,0.000537 s⁻¹,766000 M⁻¹ s⁻¹
B9,0.702 nM,0.000485 s⁻¹,691000 M⁻¹ s⁻¹
B10,0.67 nM,0.000383 s⁻¹,571000 M⁻¹ s⁻¹
B11,0.789 nM,0.000392 s⁻¹,497000 M⁻¹ s⁻¹
B3,2.08 nM,0.00283 s⁻¹,1.36e+06 M⁻¹ s⁻¹
B12,0.546 nM,0.000385 s⁻¹,705000 M⁻¹ s⁻¹
B13,0.589 nM,0.000318 s⁻¹,539000 M⁻¹ s⁻¹
B14,0.724 nM,0.000425 s⁻¹,587000 M⁻¹ s⁻¹
B15,0.469 nM,0.00024 s⁻¹,512000 M⁻¹ s⁻¹
B16,0.758 nM,0.000567 s⁻¹,747000 M⁻¹ s⁻¹

# Biological target: T3, cyno BCMA-Fc
# Assay: SPR Biacore, antibody captured, 25 C
# Protocol: as §1, §2, §3
Binder,Kd,koff,kon
B5,3.68 nM,0.00116 s⁻¹,315000 M⁻¹ s⁻¹
B6,3.84 nM,0.00133 s⁻¹,347000 M⁻¹ s⁻¹
B7,7.9 nM,0.00274 s⁻¹,346000 M⁻¹ s⁻¹
B8,3.24 nM,0.00116 s⁻¹,358000 M⁻¹ s⁻¹
B9,4.53 nM,0.00147 s⁻¹,325000 M⁻¹ s⁻¹
B10,5.75 nM,0.00153 s⁻¹,266000 M⁻¹ s⁻¹
B11,6.24 nM,0.00156 s⁻¹,249000 M⁻¹ s⁻¹
B12,3.67 nM,0.0013 s⁻¹,354000 M⁻¹ s⁻¹
B13,6.43 nM,0.00173 s⁻¹,270000 M⁻¹ s⁻¹
B14,5.83 nM,0.00177 s⁻¹,304000 M⁻¹ s⁻¹
B15,4.39 nM,0.00114 s⁻¹,260000 M⁻¹ s⁻¹
B16,4.22 nM,0.00137 s⁻¹,325000 M⁻¹ s⁻¹

# Biological target: T2, human BCMA on cells
# Assay: FACS, NCI-H929 cells
# Protocol: (§4) Variants for which sufficient protein was purified in secondary screening were tested in a fluorescence-activated cell sorting (FACS) cell-binding assay. […] 6-12 point dilutions of anti-BCMA variants starting from concentrations of about 100-200 nM antibody were dispensed into each well using a BioMekFX (Beckman Coulter). Cells were then incubated on ice for 1 hr, washed with FACS buffer and incubated for 1 hr on ice with […] FACS buffer containing 2.5 μg/ml Alexa647-conjugated Goat Anti-Human IgG dispensed using BioMekFX (Beckman Coulter). Cells were then washed 2× with FACS buffer and fixed for 10 minutes in […] PBS with 2% paraformaldehyde (PFA) prior to fluorescence detection. Samples were acquired using a Beckton Dickinson LSRII FACS. Geometric Mean Fluorescence Intensity of BCMA antibody binding was analyzed using FlowJo® software (Tree Star, Inc.).
Binder,Bmax,Kd
B17,21100 MFI,33 nM
B18,25800 MFI,65.8 nM
B5,11700 MFI,5.2 nM
B6,11400 MFI,4.5 nM
B7,11200 MFI,4.3 nM
B8,10900 MFI,4 nM
B9,9620 MFI,4.4 nM
B10,12200 MFI,4.5 nM
B11,11100 MFI,5.7 nM
B3,2510 MFI,5.3 nM
B12,11600 MFI,4.5 nM
B13,12700 MFI,10.3 nM
B14,12500 MFI,5.3 nM
B15,11900 MFI,6.2 nM
B16,11500 MFI,4.4 nM

# Biological target: cynomolgus BCMA on cells (cynomolgus monkey, UniProt Q02223 1-184 (human entry))
# Assay: FACS, 293T-cynoBCMA cells
# Protocol: as §4
# cynomolgus BCMA on cells, sequence (Q02223 other isoform, or with tags, fused parts or gaps): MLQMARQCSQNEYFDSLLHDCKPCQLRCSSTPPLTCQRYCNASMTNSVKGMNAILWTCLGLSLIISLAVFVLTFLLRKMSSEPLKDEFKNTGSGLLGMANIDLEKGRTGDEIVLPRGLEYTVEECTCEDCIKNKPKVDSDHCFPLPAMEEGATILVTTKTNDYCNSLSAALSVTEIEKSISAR
Binder,Bmax,Kd
B17,17800 MFI,8.87 nM
B18,24400 MFI,7.33 nM
B1,78100 MFI,6.7 nM
B2,77100 MFI,4.7 nM
B4,18500 MFI,10.1 nM
B5,23800 MFI,6.2 nM
B6,25800 MFI,3.4 nM
B7,17400 MFI,2.5 nM
B8,21300 MFI,3.8 nM
B9,21900 MFI,2.5 nM
B10,21800 MFI,5 nM
B11,22100 MFI,3.8 nM
B3,3620 MFI,15.1 nM
B12,26700 MFI,5.1 nM
B13,18500 MFI,3 nM
B15,26600 MFI,3.4 nM
B16,24100 MFI,4.9 nM

# Biological target: T1, human BCMA-Fc
# Assay: ELISA, coated huBCMA-Fc
Binder,Bmax,EC50
B1,4.12e+06,0.2 nM
B2,4.83e+06,0.3 nM
B3,3.68e+06,0.2 nM
